According to US20260055369A1 (H LEE MOFFITT CANCER CENTER AND RESEARCH INSTITUTE, published 2026):

Assays:
[1] = target: T1, hNotch3 (EGF5-12, residues 197-505), biotinylated (human, UniProt Q9UM47 197-505, Biotinylated in vitro by BirA at the C-terminal BAP-tag (tag not in the letters).); experiment: SPR (Biacore T200), biotinylated Notch fragment on streptavidin chip, DLL4 protein (N-EGF5) in flow, 1:1 model
T1 construct: Immobilised on a streptavidin chip for SPR
T1 sequence: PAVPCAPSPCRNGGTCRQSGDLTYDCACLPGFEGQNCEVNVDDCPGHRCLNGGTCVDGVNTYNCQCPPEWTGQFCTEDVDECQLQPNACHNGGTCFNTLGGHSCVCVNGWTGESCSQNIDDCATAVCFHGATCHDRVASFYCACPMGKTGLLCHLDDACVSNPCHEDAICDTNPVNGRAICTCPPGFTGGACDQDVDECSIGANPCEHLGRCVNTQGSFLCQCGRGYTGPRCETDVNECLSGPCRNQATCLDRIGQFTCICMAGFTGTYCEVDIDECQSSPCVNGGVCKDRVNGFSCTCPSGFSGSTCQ
Protocol: The rapid dissociation of WT DLL4 precluded kinetic fitting of the binding data.
Equilibrium dissociation constants were determined by surface plasmon resonance using a Biacore T200 instrument (GE Healthcare). Approximately 100 resonance units (RU) of biotinylated Notch extracellular fragments (Notch1 (EGF6-13), Notch2 (EGF6-13), Notch3 (EGF5-12), Notch4 (7-12), and mouse Notch1 (EGF6-13)) were immobilized on individual flow cells at 5 μl/min using a streptavidin-coated sensor chip (Series S Sensor chip SA, GE Healthcare). Three-fold serial dilutions of recombinant DLL4 proteins (N-EGF5) starting at 50 μM (WT DLL4), 18 μM (DLL4.v2), and 6 μM (DLL4.v1 and Delta^MAX) were flowed over the chip at 25° C. in SPR buffer (20 mM HEPES pH 7.4, 150 mM NaCl, 1 mM calcium chloride, 0.1% BSA supplemented with 0.005% surfactant P20). Association (“on-rate”) and dissociation (“off-rate”) phases were performed at 10 μl/min for 120 seconds and 300 seconds, respectively. […] Data collection rate was performed at 10 Hz, and curves were reference-subtracted from a flow cell containing 100 RU of a negative control non-related protein (biotinylated mouse RNF43 PA domain). The maximum RU for each experiment was normalized to a value of 100% and plotted as a function of concentration using Prism 9 software (GraphPad). Steady-state binding and kinetic curves were fitted using the Biacore T200 evaluation software to a 1:1 Langmuir model to determine the KD values.

[2] = target: T2, mouse Notch1 (EGF6-13, residues 221-526), biotinylated (mouse, UniProt Q01705 221-526, Biotinylated in vitro by BirA at the C-terminal BAP-tag (tag not in the letters).); experiment: SPR (Biacore T200), biotinylated mNotch1 EGF6-13 on streptavidin chip, DLL4 protein (N-EGF5) in flow, 1:1 model
T2 construct: Immobilised on a streptavidin chip for SPR; also called mNotch1 EGF6-13; mNotch1 (6-13)
T2 sequence: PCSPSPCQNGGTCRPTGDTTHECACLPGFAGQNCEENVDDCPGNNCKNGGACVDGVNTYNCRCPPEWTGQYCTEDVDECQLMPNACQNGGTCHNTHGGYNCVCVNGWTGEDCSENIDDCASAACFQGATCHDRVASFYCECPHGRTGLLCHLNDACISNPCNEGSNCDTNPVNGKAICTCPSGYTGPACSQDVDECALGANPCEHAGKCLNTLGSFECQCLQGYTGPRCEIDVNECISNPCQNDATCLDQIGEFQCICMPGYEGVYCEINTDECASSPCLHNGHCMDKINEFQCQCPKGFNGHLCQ
Protocol: The binding affinity was measured between each DLL4 variant and the EGF6-13 region of murine Notch1 (mNotch1 EGF6-13) to test for cross-species reactivity (FIGS. 2B, 10, 11A). […] Lastly, the binding of Delta^MAX to full-length, cell surface-expressed Notch1 was assessed.
Equilibrium dissociation constants were determined by surface plasmon resonance using a Biacore T200 instrument (GE Healthcare). Approximately 100 resonance units (RU) of biotinylated Notch extracellular fragments (Notch1 (EGF6-13), Notch2 (EGF6-13), Notch3 (EGF5-12), Notch4 (7-12), and mouse Notch1 (EGF6-13)) were immobilized on individual flow cells at 5 μl/min using a streptavidin-coated sensor chip (Series S Sensor chip SA, GE Healthcare). Three-fold serial dilutions of recombinant DLL4 proteins (N-EGF5) starting at 50 μM (WT DLL4), 18 μM (DLL4.v2), and 6 μM (DLL4.v1 and Delta^MAX) were flowed over the chip at 25° C. in SPR buffer (20 mM HEPES pH 7.4, 150 mM NaCl, 1 mM calcium chloride, 0.1% BSA supplemented with 0.005% surfactant P20). Association (“on-rate”) and dissociation (“off-rate”) phases were performed at 10 μl/min for 120 seconds and 300 seconds, respectively. […] Data collection rate was performed at 10 Hz, and curves were reference-subtracted from a flow cell containing 100 RU of a negative control non-related protein (biotinylated mouse RNF43 PA domain). […]

[3] = target: T2, mouse Notch1 (EGF6-13, residues …); experiment: SPR steady-state binding isotherm, biotinylated mNotch1 (EGF6-13) on a streptavidin chip, DLL4 variant as analyte, response normalized to the maximum (100%)
Text: Extended Data FIG. 5. Quantitation of mNotch1 binding to DLL4 variants, ligand adsorption, and Notch surface expression. a, SPR binding isotherms were fitted to a 1:1 binding model to determine the binding affinity between mNotch1 (6-13) and each DLL4 variant. b, Determination of plate adsorption for WT DLL4 and Delta^MAX by ELISA. Data represent mean values±s.d. of three biological replicates. c, Binding assay of WT DLL4 and Delta^MAX tetramers to Notch1 overexpressing CHO-K1 N1-Gal4 cells was measured by flow cytometry. Data represent mean values±s.d. of three biological replicates. d, The level of Notch1 expression on the surface of cell lines used in this study was determined by flow cytometry. Data represent mean values±s.d. of three biological replicates. e, Percentage of CD8⁺ T cells expressing Notch1 (upper graph) and Notch2 (bottom graph) on cell surface determined by flow cytometry after stimulation with K32-WT DLL4, K32-Delta^MAX, or K32 for 96 hours. Data represent mean values±s.e.m. of three biological replicates. Delta^MAX statistics are referred to WT DLL4. *P<0.05, ****P<0.0001 (Two-way ANOVA).
Equilibrium dissociation constants were determined by surface plasmon resonance using a Biacore T200 instrument (GE Healthcare). […]

B1: Delta^MAX (N-EGF5), non-biotinylated (ligand)
chain: SSVFQLQLQEFINERGVLASGRPCEPGCRTFFRVCLKHFQAVVSPGPCTFGTVSTPVLGTNSFAVRDDSSGGGRNPLQLPLNFTWPGTFSLIIEAWHAPGDDLRPEALPPDALISKFAIQGSLAVGQNWLLDEQTSTLTRLRYSYRVICSDNYYGDNCSRLCKKRNDYFGHYVCQPDGNPSCLPGWTGEYCQQPICLSGCHEQNGYCSKPAECLCRPGWQGRLCNECIPHPGCRHGTCSTPWQCLCDEGWGGLYCDQDLNYCTHHSPCKNGATCRNSGPRSYTCTCRPGYTGVDCELELSECDSNPCRNGGSCKDQEDGYHCLCPPGYYGLHCEHSTLSCADSPCFNGGSCRERNQGANYACECPPNFTGSNCEHHHHHHHH
notes: also called DLL4^MAX; soluble Delta^MAX
In the case of B1, the Kd [1] is reported as 49 nM, the Kd [2] is reported as 25 nM and the “EC50 (read off the curve)” value [3] is reported as about 20 nM.
